{"source": "paper PMC8606822", "about": "“Novel dTDP-L-Rhamnose Synthetic Enzymes (RmlABCD) From Saccharothrix syringae CGMCC 4.1716 for One-Pot Four-Enzyme Synthesis of dTDP-L-Rhamnose” (Frontiers in Microbiology, 2021)", "molecules": {"B1": {"name": "Ss-RmlB (Saccharothrix syringae) (protein)", "chain": "MRVLVTGGAGFIGSHYVRELVGGSYPAYADAEVVVLDKLTYAGNEANLAPVADSPRLTFVRGDICDRELVVGVMRGVDVVVHFAAESHVDRSITGSADFVLTNVLGTQVLLQAALEAGVAKFVHVSTDEVYGSIAEGSWTEDHVLEPNSPYSASKASSDLLARAFHRTHGLPVCVTRCSNNYGPYQFPEKVIPLFVTNLVDGRKVPLYGDGLNVRDWLHVDDHCRGIQLVLEGGRGGEIYNIGGGTELTNRELTARLLEATGRDWDSFVEPVEDRKGHDRRYSVDITKISTELGYAPRVDFAEGLAATVRWYRENRAWWEPLKQRAALTG"}, "B2": {"name": "Ss-RmlA (Saccharothrix syringae) (protein)", "chain": "MKGIILAGGSGTRLHPITQAVSKQLLPVYDKPMVYYPLSVLMLAGIREILLISTPTDLPLFRRLLGDGSQFGLSVSYAEQAQPNGLAEAFVIGADFVGDDDVSLVLGDNIFYGQGFSRLLQHHAATLDGCVLFGYPVKDPERYGVGEVDATGRLVSIEEKPAAPKSNKAITGLYFYDNQVVDIARNLRPSARGELEITDVNLTYLRQGRAHLVDLGRGFAWLDTGTHDSLLEAGQFVQVLEHRQGVRIACPEEIALRMGFITADECYALGEKLAKSGYGQYVMYVAREVR"}}, "key": {"[1]": {"target": "T1, Ss-RmlD (Saccharothrix syringae, UniProt A0A5Q0HAF2)", "T1 construct": "gene rfbD", "T1 sequence (A0A5Q0HAF2 1-297)": "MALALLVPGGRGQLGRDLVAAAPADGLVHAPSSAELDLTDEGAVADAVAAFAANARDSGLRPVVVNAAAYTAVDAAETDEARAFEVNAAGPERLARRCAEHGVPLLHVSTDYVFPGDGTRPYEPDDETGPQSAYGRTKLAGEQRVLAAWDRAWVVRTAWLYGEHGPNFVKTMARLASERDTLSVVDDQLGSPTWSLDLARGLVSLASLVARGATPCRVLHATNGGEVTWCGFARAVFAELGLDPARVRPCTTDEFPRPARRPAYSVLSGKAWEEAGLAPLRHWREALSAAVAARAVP", "assay": "one-pot reaction with Ss-RmlABC; product yield by HPLC", "format": "biochemical", "details": "pH 8.5, 30 °C; dTDP-4-keto-rhamnose made in situ"}, "[2]": {"substrate": "Cc1cn([C@H]2C[C@H](O)[C@@H](COP(=O)(O)OP(=O)(O)O[C@H]3O[C@H](CO)[C@@H](O)[C@H](O)[C@H]3O)O2)c(=O)[nH]c1=O", "assay": "purified protein", "format": "biochemical, Saccharothrix syringae", "details": "optimal conditions (50 °C, pH 7.5, 0.02 mM NAD+)"}, "[3]": {"substrate": "Cc1cn([C@H]2C[C@H](O)[C@@H](COP(=O)(O)OP(=O)(O)OP(=O)(O)O)O2)c(=O)[nH]c1=O", "assay": "malachite green PPi release assay with inorganic pyrophosphatase", "format": "biochemical, Saccharothrix syringae", "details": "1 mM Glc-1-P, optimal conditions (37 °C, pH 9.0, 2.5 mM Mg2+)"}, "[4]": {"substrate": "O=P(O)(O)O[C@H]1O[C@H](CO)[C@@H](O)[C@H](O)[C@H]1O", "assay": "malachite green PPi release assay with inorganic pyrophosphatase", "format": "biochemical, Saccharothrix syringae", "details": "1 mM dTTP, optimal conditions (37 °C, pH 9.0, 2.5 mM Mg2+)"}}}
{"molecule": "NC(=O)C1=CN([C@@H]2O[C@H](COP(=O)(O)OP(=O)(O)OC[C@H]3O[C@@H](n4cnc5c(N)ncnc54)[C@H](OP(=O)(O)O)[C@@H]3O)[C@@H](O)[C@H]2O)C=CC1", "note": "[NADPH]", "values": [{"measurement": "one-pot reaction with Ss-RmlABC; product yield by HPLC", "setting": "[1]", "result": "NADPH was an essential cofactor for the final step of reduction catalyzed by Ss-RmlD"}]}
{"molecule": "B1", "values": [{"measurement": "Km", "setting": "[2]", "result": 98.60, "unit": "µM"}, {"measurement": "kcat", "setting": "[2]", "result": 11.2, "unit": "s⁻¹"}]}
{"molecule": "B2", "values": [{"measurement": "Km", "setting": "[3]", "result": 49.56, "unit": "µM"}, {"measurement": "kcat", "setting": "[3]", "result": 5.39, "unit": "s⁻¹"}, {"measurement": "Km", "setting": "[4]", "result": 117.30, "unit": "µM"}, {"measurement": "kcat", "setting": "[4]", "result": 3.46, "unit": "s⁻¹"}]}
